This is an account of results in US20230374088A1 (GENERAL HOSPITAL, published 2023).

B1: GST-Kif7-CC (460-600aa) (other)
chain: PDSGIESASVEDQAAQGAGGRKEDEGAQQLLTLQNQVARLEEENRDFLAALEDAMEQYKLQSDRLREQQEEMVELRLRLELVRPGWGGPRLLNGLPPGSFVPRPHTAPLGGAHAHVLGMVPPACLPGDEVGSEQRGEQVTN
notes: held on the BLI sensor through the GST tag; also called Kif7 coiled-coil domain; coiled-coil dimerization domain fragment of Kif7; not shown: N-terminal GST tag (HRV protease cleavable, modified pGEX vector)
B2: GST-Kif7-CC-GFP (other)
chain: B1 chain
notes: also called GST-tagged Kif7-CC-GFP; not shown: N-terminal GST tag; GFP tag, C-terminal by the name
B3: Gli2 ZF1-3 (other, human, UniProt P10070 418-530, looked up)
chain: KEDLDRDDCKQEAEVVIYETNCHWEDCTKEYDTQEQLVHHINNEHIHGEKKEFVCRWQACTREQKPFKAQYMLVVHMRRHTGEKPHKCTFEGCSKAYSRLENLKTHLRSHTGE
notes: domain: zinc-fingers 1-3
B4: Gli2-ZF (418-604aa; zinc finger domain of Gli2) (other, human, UniProt P10070 418-604, looked up)
chain: KEDLDRDDCKQEAEVVIYETNCHWEDCTKEYDTQEQLVHHINNEHIHGEKKEFVCRWQACTREQKPFKAQYMLVVHMRRHTGEKPHKCTFEGCSKAYSRLENLKTHLRSHTGEKPYVCEHEGCNKAFSNASDRAKHQNRTHSNEKPYICKIPGCTKRYTDPSSLRKHVKTVHGPDAHVTKKQRNDVH
notes: Expressed with an HRV-cleavable N-terminal 6xHis tag, cleaved 'if needed'; also called Gli-ZF

The target of assay [1] is T1, Gli2-ZF-1-4 (human, UniProt P10070 418-562, limits assumed).
T1 construct: domain: zinc-fingers 1-4
Briefly: BLI with Gli2-ZF truncation, Hill fit. From the text:
(§1) Data represent mean and standard deviation from three independent repeats. The plots of binding response versus Gli2-ZF concentration were fit to a Hill equation to determine equilibrium dissociation constants (Kd).
(§2) Third, we performed a series of site-directed mutagenesis experiments to further confirm the structural model and map the residues of Gli2-ZF and Kif7-CC required for complex formation. We created five Gli2-ZF truncations containing different groups of zinc-fingers (FIG. 3C; FIGS. 10A & 10B). […] This is similar to the Gli-DNA interaction where ZF2 and ZF3 are critical for making contacts with the phosphate backbone of DNA (Pavletich and Pabo, Science, 261, 1701-1707, 1993).
(§3) BLI experiments were performed in an Octet Red 96 instrument (ForteBio). To quantify Kif7-Gli2 binding, Experiments were performed in an assay buffer containing 40 mM TRIS pH7.3, 40 mM KCl, 40 μM ATP 1 mM MgCl₂, 0.12% tween and 0.5 mM TCEP. In the simplest assay, dimeric GST-Kif7-CC at a concentration of 120 nM is immobilized on an anti-GST biosensor chip. Unbound Kif7 is washed away with buffer, and the chips are then dipped into buffer with a range of Gli2-ZF concentrations from 0-1 μM to allow for association of the two proteins. After 300 seconds, they are then moved back into a well with just buffer to allow dissociation for 400 seconds. […]

For assay [2], the target named is B4. Briefly: BLI; GST-Kif7-CC on anti-GST sensor, Gli2-ZF as analyte, Hill fit of equilibrium response. An excerpt: Data represent mean and standard deviation from three independent repeats. The plots of binding response versus Gli2-ZF concentration were fit to a Hill equation to determine equilibrium dissociation constants (Kd). […] See also FIGS. 8A & 8B.
Single molecule fluorescence intensity and photobleaching analysis of the GFP-tagged proteins indicate that the GST-Kif7-CC is an obligate dimer and Gli2-ZF is a monomer (FIGS. 8C & 8D). […] We also verified that Kif7-CC-GFP and Gli2-ZF-GFP bind with similar affinity as the untagged proteins (FIG. 8E). Due to higher stability and yield of the Kif7-CC compared to the Kif7-SCC protein, we used the Kif7-CC for further biochemical analysis.
BLI experiments were performed in an Octet Red 96 instrument (ForteBio). To quantify Kif7-Gli2 binding, Experiments were performed in an assay buffer containing 40 mM TRIS pH7.3, 40 mM KCl, 40 μM ATP 1 mM MgCl₂, 0.12% tween and 0.5 mM TCEP. In the simplest assay, dimeric GST-Kif7-CC at a concentration of 120 nM is immobilized on an anti-GST biosensor chip. Unbound Kif7 is washed away with buffer, and the chips are then dipped into buffer with a range of Gli2-ZF concentrations from 0-1 μM to allow for association of the two proteins. After 300 seconds, they are then moved back into a well with just buffer to allow dissociation for 400 seconds.
Background: In BLI a coated tip is dipped into the sample, and binding shifts an interference pattern.

In assay [3] the target is T1, Gli2-ZF-1-4. The experiment in a line: BLI with Gli2-ZF truncation, Hill fit (legend of FIG. 10C); legend of FIG. 10C; Hill fit, three repeats. The procedure: as §1
(§4) BLI experiments were performed in an Octet Red 96 instrument (ForteBio). To quantify Kif7-Gli2 binding, Experiments were performed in an assay buffer containing 40 mM TRIS pH7.3, 40 mM KCl, 40 μM ATP 1 mM MgCl₂, 0.12% tween and 0.5 mM TCEP. In the simplest assay, dimeric GST-Kif7-CC at a concentration of 120 nM is immobilized on an anti-GST biosensor chip. Unbound Kif7 is washed away with buffer, and the chips are then dipped into buffer with a range of Gli2-ZF concentrations from 0-1 μM to allow for association of the two proteins. After 300 seconds, they are then moved back into a well with just buffer to allow dissociation for 400 seconds. The equilibrium response of each sensor from three independent repeats at each Gli2 concentration were normalized and plotted against Gli2 concentration and fitted with a Hill function to obtain a Kₜ. […] The assays were also performed with HIS-tagged Kif7-DM and the Kif7-Kif27 chimeric proteins, requiring the use of an anti-penta-HIS biosensor chip, and referencing sensors to account for non-specific binding of Gli2 to the HIS sensor. […]

Assay [4] deals with B4. Briefly: BLI, Hill fit. The method, then: (§5) Data represent mean and standard deviation from three independent repeats. The plots of binding response versus Gli2-ZF concentration were fit to a Hill equation to determine equilibrium dissociation constants (Kd). […] GFP-tagged versions of proteins show a consistent increase in Kd that is within error range.
as §4

The target of assay [5] is T2, Gli2-ZF-GFP (human, UniProt P10070 418-604).
T2 construct: HRV-cleavable N-terminal 6xHis tag in the vector; not shown: C-terminal GFP tag
T2 sequence (looked up): B4 chain
The experiment in a line: BLI, Hill fit. The procedure:
as §5, §4

Assay [6] concerns the target B1. The experiment in a line: BLI with Gli2-ZF truncation, Hill fit.
Excerpt: as §1, §2, §3

The target of assay [7] is T3, Kif7-DM-GFP (1-543aa) (human, UniProt Q2M1P5 1-543).
T3 sequence: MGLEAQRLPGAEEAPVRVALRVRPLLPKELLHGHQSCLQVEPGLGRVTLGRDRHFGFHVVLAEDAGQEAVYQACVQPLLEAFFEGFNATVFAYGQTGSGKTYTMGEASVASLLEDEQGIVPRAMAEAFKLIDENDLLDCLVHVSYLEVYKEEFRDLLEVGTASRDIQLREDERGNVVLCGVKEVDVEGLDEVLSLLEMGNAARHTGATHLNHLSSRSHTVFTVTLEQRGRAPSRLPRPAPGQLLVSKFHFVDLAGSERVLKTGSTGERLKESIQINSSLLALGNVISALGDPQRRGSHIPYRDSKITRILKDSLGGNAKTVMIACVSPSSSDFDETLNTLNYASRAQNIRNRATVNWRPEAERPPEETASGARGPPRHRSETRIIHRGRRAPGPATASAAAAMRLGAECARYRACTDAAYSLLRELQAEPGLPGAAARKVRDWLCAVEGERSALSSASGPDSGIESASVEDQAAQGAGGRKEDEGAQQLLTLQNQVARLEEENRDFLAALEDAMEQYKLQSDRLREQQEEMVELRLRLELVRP
Briefly: cell-based or functional assay.

Assay [8] addresses T4, Kif27M-Kif7CC chimera (human, UniProt Q86VH2 1-475).
T4 construct: range 1-475; not shown: HIS tag (used for BLI); GFP tag
T4 sequence: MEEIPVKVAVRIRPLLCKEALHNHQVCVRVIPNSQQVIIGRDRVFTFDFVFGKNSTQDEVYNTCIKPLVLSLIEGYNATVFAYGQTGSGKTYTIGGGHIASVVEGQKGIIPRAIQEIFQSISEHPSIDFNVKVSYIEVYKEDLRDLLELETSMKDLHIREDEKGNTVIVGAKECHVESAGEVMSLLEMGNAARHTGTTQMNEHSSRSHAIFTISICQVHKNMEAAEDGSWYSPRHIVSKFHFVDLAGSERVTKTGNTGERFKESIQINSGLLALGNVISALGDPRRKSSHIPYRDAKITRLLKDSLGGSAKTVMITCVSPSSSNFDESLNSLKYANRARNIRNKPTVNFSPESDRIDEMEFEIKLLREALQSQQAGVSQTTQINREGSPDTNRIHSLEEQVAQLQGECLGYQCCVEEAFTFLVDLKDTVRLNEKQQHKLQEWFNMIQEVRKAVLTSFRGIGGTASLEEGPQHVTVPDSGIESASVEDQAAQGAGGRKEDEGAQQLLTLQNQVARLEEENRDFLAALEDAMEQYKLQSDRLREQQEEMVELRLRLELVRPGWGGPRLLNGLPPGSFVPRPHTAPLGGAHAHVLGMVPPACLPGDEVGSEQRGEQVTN
Briefly: BLI; HIS-tagged, GFP-tagged kinesin on anti-penta-HIS sensor, Gli2-ZF as analyte, Hill fit. The procedure: as §1
(§6) BLI experiments were performed in an Octet Red 96 instrument (ForteBio). To quantify Kif7-Gli2 binding, Experiments were performed in an assay buffer containing 40 mM TRIS pH7.3, 40 mM KCl, 40 μM ATP 1 mM MgCl₂, 0.12% tween and 0.5 mM TCEP. In the simplest assay, dimeric GST-Kif7-CC at a concentration of 120 nM is immobilized on an anti-GST biosensor chip. Unbound Kif7 is washed away with buffer, and the chips are then dipped into buffer with a range of Gli2-ZF concentrations from 0-1 μM to allow for association of the two proteins. After 300 seconds, they are then moved back into a well with just buffer to allow dissociation for 400 seconds. The equilibrium response of each sensor from three independent repeats at each Gli2 concentration were normalized and plotted against Gli2 concentration and fitted with a Hill function to obtain a Kₜ. […] The assays were also performed with HIS-tagged Kif7-DM and the Kif7-Kif27 chimeric proteins, requiring the use of an anti-penta-HIS biosensor chip, and referencing sensors to account for non-specific binding of Gli2 to the HIS sensor. A flipped assay, using HIS-tagged Gli2 on the sensor and a range of Kif7 concentrations in buffer, was also conducted.

Assay [9] has as its target T3, Kif7-DM-GFP (1-543aa). The description is as above. The method, then: as §1, §6
In assay [10] the target is T5, Kif7M-Kif27CC chimera (human, UniProt Q86VH2 475-570).
T5 construct: range 475-570; not shown: HIS tag (used for BLI); GFP tag
T5 sequence: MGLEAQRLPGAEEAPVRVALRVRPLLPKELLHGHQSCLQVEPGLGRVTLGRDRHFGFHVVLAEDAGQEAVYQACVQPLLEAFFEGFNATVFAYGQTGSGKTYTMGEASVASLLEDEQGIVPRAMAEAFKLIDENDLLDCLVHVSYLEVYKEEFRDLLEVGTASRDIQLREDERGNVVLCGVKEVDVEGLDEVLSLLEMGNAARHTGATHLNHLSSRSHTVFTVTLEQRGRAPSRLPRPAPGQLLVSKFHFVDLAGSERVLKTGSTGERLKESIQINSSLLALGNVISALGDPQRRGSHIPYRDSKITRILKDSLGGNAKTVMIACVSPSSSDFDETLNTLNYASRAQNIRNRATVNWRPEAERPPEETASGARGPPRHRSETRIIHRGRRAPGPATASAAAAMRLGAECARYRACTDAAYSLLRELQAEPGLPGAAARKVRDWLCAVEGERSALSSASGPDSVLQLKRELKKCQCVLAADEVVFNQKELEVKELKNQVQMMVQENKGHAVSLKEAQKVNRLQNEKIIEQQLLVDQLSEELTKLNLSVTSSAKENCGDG
The assay is described as above. The procedure:
as §1, §6

Assay [11] has as its target B1. The experiment in a line: BLI, GST-Kif7-CC on the sensor, Gli2-ZF titrated in the presence of 125 nM Gli2 target dsDNA (competitor); not an affinity of the free pair [panel A]. The procedure: as §6

For orientation: Kd means the concentration at which binding is half-saturated. Lower therefore signals tighter binding. With B1, the figures for the Kd in assay [1], in [2] and in assay [3] were 101 nM, 48 nM and 103 nM, respectively.

With B2, the values for the Kd in [4] and in [5] were 65 nM and 57 nM, respectively.

In [6], B3 returned a Kd of 160 nM.

Usually EC50 (read off the curve) stands for the concentration giving half of the maximal effect. As to B4, the “Kif7 fluorescence intensity on microtubules (TIRF)” value in assay [7] is > 5 fold. Also, the Kd in assay [8] turned out to be 213 nM; in assay [9], 217 nM; in [10] it was 397 nM. Also, the “EC50 (read off the curve)” value in [11] was ~200 nM.
